Substrate in this series: N[C@@H](Cc1c[nH]cn1)C(=O)O
Kind of series: purified protein. The following applies: 37 °C, pH 7.4, buffer A, free enzyme. The class given is biochemical, Thermoplasma acidophilum.

Among the data in PMC9555226, “Microreactor equipped with naturally acid-resistant histidine ammonia lyase from an extremophile” (Materials advances, 2022) are Km, kcat and kcat/Km values, retold here.

B1: TaHAL (Thermoplasma acidophilum histidine ammonia lyase) (Thermoplasma acidophilum DSM 1728) (protein)
chain: MIEIDGRSLRVEDVYAVAVEYDRVSISDDTLKAVEEKHEAFLKLINSGKTVYGVNTGFGSLLNVHIERDQEIELQKNLIRSHSSGVGDYLENRYVRAIMAVRLNSLAAGYSAVSADLLNMMVEMLNRDVIPAVPKYGSVGASGDLAPLAHIGLAMMGEGKAFFEGRLMDSARALEKAGLKPYQFKEKEGVALINGTSFMSGILSIAVMDAHDILENAIRSALLSFEALGGTSKAFTPWILGARPHLGQVAIGNRFREYLTGSDIVKRADSVKVQDAYTLRCIPQVYGSVADVIDYVENVLSVEINSATDNPLFNGEEVVSGGNFHGEPVALAADFLAIALTDLGNMVERRIARLVDTNLSGLPPFLTPDSGLNSGYMIPQYTAAALCNRNKVLAYPSSADTIPTSANQEDHVSMGATGSLKLLEIIDNVRYIIAIEYLLGSQALEFTDKGMSPSTRKIYEKIREKVEKLDHDRPPSFDIETIRKMMDKKEFISALP
notes: E. coli BL21(DE3), codon-optimized gene, pET28a; N-terminal His-SUMO tag cleaved with ULP1; ~55 kDa; homotetramer with MIO
Take B1: the Km worked out at 45 ± 20 µM, the kcat was 1.01 ± 0.08 s⁻¹ and the specificity constant (kcat/Km) was determined as 22400 ± 4000 M⁻¹ s⁻¹.

For orientation: Km means the substrate concentration at which the rate is half of its maximum. Usually kcat stands for the maximal rate divided by the concentration of active sites. A word on the kcat/Km: it is the second-order rate constant that governs catalysis at low substrate concentration.
